Assay results taken from a protein production outcome set (Wang et al. 2014).

Test: label from the status in PepcDB records
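Further: failed if final PepcDB status was selected cloned or expressed and not failed if soluble or beyond.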

| Sequence | protein production |
| --- | --- |
| MGLVVSARSVSPLKKWPSRVRSFSINMGQPKSGQGWKLGACCPANRHNRERTRSCAPAGLTCLRPAPAPWACLGLDLCPSLGLDLGPSLGLALRSGPAEETMDPAGRARGQGATAGGLLLRAAAAAKGLREDLWGAAALPWRSLSRIPKREGLGEEDTAVAGHELRESRDEVSENQAAGRAGSKGLEKVPRAAPPDAAGGKLARRLSPGTPSPSLHRCTPLLPNERSFQNAAKSNNLDLMEKLFEKKVNINVVNNMNRTALHFAVGRNHLSAVDFLLKHKARVDVADKHGLTVIHLAAWSGSLEVMLMLVKAGADQRAKNQDGMSALHFATQSNHVRIVEYLIQDLHLKDLNQPDEKGRKPFLLAAERGHVEMIEKLTFLNLHTSEKDKIQWSTLWTAALTKMKTSRNSIAALTIEGACSPGTGVSTSSVSLLQGGNTALHLAAKHGHSPAVQVLLAQWQDINEMNELNISSLQIATRNGHASLVNFLLSENVDLHQKVEPKESPLHLVVINNHITVVNSLLSAQHDIDILNQKQQTPLHVAADRGNVELVETLLKAGCDLKAVDKQGKTALAVASRSNHSLVVGMLIKAERYYAWREEHHESIRDPSTGFTLTFKQDHSLETRHIRTLLWDLAYHQLKANEWQRLARSWNFTDDQIRAIEEQWSDENLGNIESLLGINQLISFENNEANMFLGKVFYSEHCPLMDILRREGVLAQGSICIRDCWELGMAEAQSMSTHYLYHIQEAVYRNIILTSYSPSVVLAVAHTEYGTMEGACKLSAASPLGNDPVNTGYSLAWQFCVIPLLSI | failed |
| MGMDLRVVPAEEWLNRGIDSSHDGEHDLGLMVTDFLETGGGSGGAGSWCSSDSDSGFPDPSYLSDKIQYLKYSMAQHETEVLSVVRTLMLTIKEKDLHSVKSGTCNASCIRFYLAKLLRLSGYDAAVCSARWQGGGKVPGGDNEYIDIILSDTEVGQDDRLIVDIDFRSHFEIARAVDSYQRIMESLPVVYVGTVARLNQFLQVMVDAAKFSLKQNSMPLPPWRSLNYLRSKWHSPHKRHLGPIDQQGPGMFSPGLHGQCAENLKRLQFALQVEQEAERFMKKKSGFSRRN | failed |
| MGMFERDTEIYLDRDALREDYQPENLVGRDTELNRYRAALQPVINGEQPNNIFLYGKTGVGKTAGTRYLIDHLEEDAAKYEDIDLTVKMLNCDGLSSSYQIATRLVNEFRDETSQISTTGYPRATVYDMLWTELDSCGGTIYIVLDEVDHIEDDSILYQLPRARANDNLSSAKIGIIGISNDFSFRDDLSPKVKSSLCEEEIQFPAYDAKELIQILQQRADVAFHDGVLEDGVIELCAAYGAKDAGDARQSLDLLMKTGDLARDKDTDTISEDLVREARDVLERGRIQEGISGLTQHGHLVVYAMVTLDQEGKTPARTRDIRPRYTNFAEKAGIDPLVPRRMRDHLGELSMLGIISAIERNEGRRGGTYREYSLEMDPEMILAALEKTVDDVGIHKSVTNLVDAEATLSDFQST | failed |
| MGMKYWSSKRRLYLTPVSFGFACSALLMLGTLSSYPDWLTCNPAPVVNQNDAVIYYFFRNIMMAVLFMSSIILYYFRQRIMHSWKAHVLTFTACILFTLTIIVLSWLYSSHSPWLSVNFIDDLSHTFTPLWQSIIGWLLMAVWFITLILLISLSKLRNIFWFSGAFFCSAYLFTLFQLLSTAGELDQTWYQARFFETLCTLFLILVLLVDVFILYRESNHKYVHSYQNSIRDPLTRLYNRSFFYDTLNQQLAKVNAQHPLSVLISDLDHFKRINDSYGHVAGDKVIQFAASVLESHSRVDDAAARIGGEEFALLLVNTGEKEAQAIAERIRLAVSAGESHLPERMTISMGVYTTYDNSVTAEACVQRADEAMYEAKNNGRNQVIVWHQQGG | failed |
| MGMLGLDLLKEVPGLLEEIKALPLRLDEERFRFWLQQDYPFVEALYRYQVGLLLEAPQAHRAPLVQALMATVEELDWLLLQGASPSAPVHPVRAGYIALLEEMGRLPYAYRVVFFYFLNGLFLEAWAHHVPEEGPWAELSQHWFAPEFQAVLYDLEVLARGLWEDLDPEVVRTYLRRILEAEKATWSLLL | not failed |
| MGNFHATTIFAVHHNGECAMAGDGQVTMGNAVVMKHTARKVRKLFQGKVLAGFAGSVADAFTLFEMFEGKLEEYNGNLQRAAVEMAKQWRGDKMLRQLEAMLIVMDKTTMLLVSGTGEVIEPDDGILAIGSGGNYALSAGRALKQYASEHLTAKQIAKASLEIAGDICVYTNHNIIVEEL | not failed |
| MGNFSLFSSFNPEGQHDDVANRWRSPTPMRYIIPNIITILAICAGMSSIRLAFEHRYEAAILMVLLAAILDGADGRIARLMDGSSSFGAQMDSLADVINFGVAPSLIVYSFVLNQAHQVGWIAGLVYCVACCLRLARFNVMLDNTDIPKWQGNYFVGVPAPAGALLLLLPMYLGALGLVPSWSWALFFSLYTVIIAFLLVSRLPVWNGKTINQNLRRDIVVPCMLGIVIYVGFLATYTWHTLLITAVSYMIFLPCSFVAYNKRAALEEKKANIKTLSSS | failed |
| MGNFTFEEMNLMCIYNTGSRTGLIDSLREMRGELAPEETELRELTDSALGNLQAMSDAEFAELELYPDFDQ | failed |
| MGNNKNLHGHLFALTANVMWGLMSPIGKSALQEFSAISVTTFRMVGAAAAFWILSIFCKQEHVDHRDMLKIFFASLFALVFNQGIFIFGLSMTSPIDASIVTTTLPIVTMIVAAIYLKEPITNKKVLGIFVGAMGALILIMSSQAASSGNGSLIGDLLCLVAQISFSIYLTVFKGLSQRYSAVTINKWMFIYASMCYIPFSYQDISVIQWTSIPMVAILQVLYVVLGGSFLAYLCIMTAQKLLRPTVVSMYNYMQPIVATIAAILMGIGSFGWEKGIAITLVFLGVYIVTQSKSKADFEKAGKEL | failed |
| MGPINLLWLQAAGCGGCTMAILEQGRAGWFAELASFDINLLWHPSVSEATADDVIDLLAAVSAARTPLSVLVVEGAVLRGPNGSGRFNMLGGTGRSMASWISELAPRADYVVAVGSCSAYGGVPAAGHNPTDASGLQFLGTEPGGVLGAAFRSKAGLPVINIAGCAPHPGWIAETLAALALGEFSAAALDSFARPKFFAEHLAHHGCARNEFYEFKASAEAMSQRGCLMEHLGCKATQAVGDCNQRSWNGGGSCTQAGYPCIACTSPGFEAAHNYMTTAKVAGIPVGLPLDMPKAWFVALAALSKSATPKRVRANATADHVVVPPTPSGHRRK | failed |
| MGPPERPSLGWTPKEADMQSGPQPDEWSSGWKPGDGGAAPLPLSPALSFLLLFPLASALQPTPLPFPELRLVGGPSRCRGRLEVMHSGSWGSVCDDDWDVVDANVVCRQLGCGLALPVPRPLTFGQGRGPIFLDNVECRGQEASLSECGSRGWGVHNCFHYEDVAVLCDEFLHTQPPARKVLTSIAPPTALQNGRGEGSVRLAGGASPCQGRVEILHGGLWGTVCDDDWGLPDAAVVCRQLGCGAALAATTNAFFGYGTGHILLDNVHCEGGEPRLAACQSLGWGVHNCGHHEDAGVLCAATGVGALPSRDTIRFTTAAWASGKKSGRLRLVGGPSPCRGRVEVLYAGGWGTVCDDDWDFADARVACREAGCGPALGATGLGHFGYGRGPVLLDNVGCTGTEARLSDCFHLGWGQHNCGHHEDAGALCAGEAVESDKEAAQAEQAGLRAHKRGSVHARTNNMGPEELGLQVQQDGSETTRMPSPRPRDGHLRLASGTHRCEGRVELFLGQQWGTVCDDAWDLRAAIVLCRQLGCGQALAALGEAHFGPGRGPILLDNVKCRGDESTLLLCSHIRWDVHNCDHSEDASVLCQPL | failed |
